From US20260078195A1 (BEIJING MABWORKS BIOTECH, published 2026)

B1: MBS314 (tri-specific GPRC5D×BCMA×CD3 antibody) (other)
heavy 1: QVQLVQSGAEVKKPGASVKVSCKASGYTFTNHIIHWVRQAPGQGLEWMGYINPYPGYHGYNDKFSGRATMTSDTSTSTVYMELSSLRSEDTAVYYCARDGYYRDQDVLDYWGQGTLVTVSSGGGGSGGGGSGGGGSGGGGSDIQMTQSPSSLSASVGDRVTITCKASQDISQYLNWYQQKPGKAPKLLIYYTSGLHPGVPSRFSGSGSGTDFTFTISSLEPEDEATYYCQQGYALPWTFGQGTKLTAKGGGGSGGGGSGGGGSEVQLVESGGGLVQPGRSLRLSCAASGFTFDDFAMHWVRQAPGKGLEWVSGITWNSGSVGYADSVKGRFTISRDNAKKSLYLQMNSLRAEDTALYYCAKDRSGYGHYYYGMDVWGQGTTVTVASASTKGPSVFPLAPSSKSTSGGTAALGCLVKDYFPEPVTVSWNSGALTSGVHTFPAVLQSSGLYSLSSVVTVPSSSLGTQTYICNVNHKPSNTKVDKKVEPKSCDKTHTCPPCPAPEAAGGPSVFLFPPKPKDTLMISRTPEVTCVVVDVSHEDPEVKFNWYVDGVEVHNAKTKPREEQYASTYRVVSVLTVLHQDWLNGKEYKCKVSNKALPAPIEKTISKAKGQPREPQVYTLPPSREEMTKNQVSLWCLVKGFYPSDIAVEWESNGQPENNYKTTPPVLDSDGSFFLYSKLTVDKSRWQQGNVFSCSVMHEALHNHYTQKSLSLSPGK
light 1: not shown
heavy 2: QVQLQESGPGLVKPSETLSLTCTVSGYSITSDYAWNWIRQPPGKGLEWMGYISYSGSATYSPSLKSRITISRDTSKNQFSLKLSSVTAADTAVYYCARGGIAGRGRWGAMDYWGQGTTVTVSSASTKGPSVFPLAPSSKSTSGGTAALGCLVKDYFPEPVTVSWNSGALTSGVHTFPAVLQSSGLYSLSSVVTVPSSSLGTQTYICNVNHKPSNTKVDKKVEPKSCDKTHTCPPCPAPEAAGGPSVFLFPPKPKDTLMISRTPEVTCVVVDVSHEDPEVKFNWYVDGVEVHNAKTKPREEQYASTYRVVSVLTVLHQDWLNGKEYKCKVSNKALPAPIEKTISKAKGQPREPQVYTLPPSREEMTKNQVSLSCAVKGFYPSDIAVEWESNGQPENNYKTTPPVLDSDGSFFLVSKLTVDKSRWQQGNVFSCSVMHEALHNHYTQKSLSLSPGK
light 2: DIQMTQSPSSLSASVGDRVTITCKASQNVGTNVAWYQQKPGQSPKALIYSASYRDSGVPDRFSGSGSGTDFTLTISSLQPEDFATYYCQQYKSYPLTFGQGTRLEIKRTVAAPSVFIFPPSDEQLKSGTASVVCLLNNFYPREAKVQWKVDNALQSGNSQESVTEQDSKDSTYSLSSTLTLSKADYEKHKVYACEVTHQGLSSPVTKSFNRGEC
notes: also called antibody MBS314; tri-specific CD3×BCMA×GPRC5D antibody
B2: JNJ-64407564 (bi-specific GPRC5D×CD3 antibody) (bispecific antibody)
chain 1: QVQLVQSGAEVKKPGASVKVSCKASGYSFTGYTMNWVRQAPGQGLEWMGLINPYNSDTNYAQKLQGRVTMTTDTSTSTAYMELRSLRSDDTAVYYCARVALRVALDYWGQGTLVTVSS
chain 2: DIQMTQSPSSLSASVGDRVTITCKASQNVATHVGWYQQKPGKAPKRLIYSASYRYSGVPSRFSGSGSGTEFTLTISNLQPEDFATYYCQQYNRYPYTFGQGTKLEIK
chain 3: EVQLVESGGGLVQPGGSLRLSCAASGFTFNTYAMNWVRQAPGKGLEWVARIRSKYNNYATYYAASVKGRFTISRDDSKNSLYLQMNSLKTEDTAVYYCARHGNFGNSYVSWFAYWGQGTLVTVSS
chain 4: QTVVTQEPSLTVSPGGTVTLTCRSSTGAVTTSNYANWVQQKPGQAPRGLIGGTNKRAPGTPARFSGSLLGGKAALTLSGVQPEDEAEYYCALWYSNLWVFGGGTKLTVL

Experiments:
[1] = molecular target: T1, monkey GPRC5D expressed on HEK293T cells (monkey, UniProt Q9NZD1 1-298 (human entry)); test: FACS on HEK293T/monkey GPRC5D cells, PE goat anti-human IgG (H+L) secondary antibody, MFI
T1 construct: also called HEK293T/monkey GPRC5D cells
T1 chain: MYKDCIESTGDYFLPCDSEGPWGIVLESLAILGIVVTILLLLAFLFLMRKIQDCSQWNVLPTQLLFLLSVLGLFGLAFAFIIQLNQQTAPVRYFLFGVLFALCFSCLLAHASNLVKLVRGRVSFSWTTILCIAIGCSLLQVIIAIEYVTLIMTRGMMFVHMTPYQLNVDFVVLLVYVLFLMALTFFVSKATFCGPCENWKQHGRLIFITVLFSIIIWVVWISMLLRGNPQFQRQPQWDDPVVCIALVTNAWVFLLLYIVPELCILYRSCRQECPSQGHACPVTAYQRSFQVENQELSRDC
Method: (§1) The cells were re-suspended in PBS, counted, and centrifuged again to remove the supernatants. The cells were re-suspended in 2% FBS-PBS, to adjust the cell concentration to 4×10⁶/ml. Each kind of cells were added to 96-well U-bottom plates, 50 μl/well. The antibodies were diluted in 2% FBS-PBS, 5-fold serial dilution starting at 40 μg/ml, obtaining 12 concentrations in total. The 96-well plates were added with 50 μl antibody dilution, mixed well, and incubated at room temperature for 1 h. The plates were washed by 2% FBS-PBS, 200 μl/well, for three times. The plates were added with PE labelled goat-anti-human IgG (H+L) secondary antibody (1:500 diluted), 50 μl/well, and incubated at room temperature for 45 min. The plates were washed by 2% FBS-PBS, 200 μl/well, for three times. Finally the plates were added with 150 μl 2% FBS-PBS to re-suspend the cells, and the cells were tested in a flow cytometer. The data was processed in FlowJo and analyzed in GraphPad.

[2] = molecular target: T2, human CD3 complex on Jurkat cells (human, UniProt P07766 23-207; P04234 22-171; P09693 23-182; P20963 22-164); test: FACS on Jurkat cells, PE goat anti-human IgG (H+L) secondary antibody, MFI
T2 construct: whole, on cells; Endogenous CD3 complex of Jurkat / JURKAT-NFAT-Luc cells; also called human Jurkat T cells; CD3 on the surface of JURKAT-NFAT-Luc cells
T2 sequence (P07766 23-207, chain 1 of 4): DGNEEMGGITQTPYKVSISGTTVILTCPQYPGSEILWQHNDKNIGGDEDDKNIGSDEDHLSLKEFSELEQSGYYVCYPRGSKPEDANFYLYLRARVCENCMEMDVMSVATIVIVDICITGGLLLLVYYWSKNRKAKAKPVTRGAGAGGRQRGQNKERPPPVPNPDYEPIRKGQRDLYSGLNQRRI
T2 sequence (P04234 22-171, chain 2 of 4): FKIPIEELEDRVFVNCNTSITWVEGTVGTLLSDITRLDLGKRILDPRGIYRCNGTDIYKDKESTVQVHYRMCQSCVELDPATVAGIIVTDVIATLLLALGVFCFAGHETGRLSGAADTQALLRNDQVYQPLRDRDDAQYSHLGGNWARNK
T2 sequence (P09693 23-182, chain 3 of 4): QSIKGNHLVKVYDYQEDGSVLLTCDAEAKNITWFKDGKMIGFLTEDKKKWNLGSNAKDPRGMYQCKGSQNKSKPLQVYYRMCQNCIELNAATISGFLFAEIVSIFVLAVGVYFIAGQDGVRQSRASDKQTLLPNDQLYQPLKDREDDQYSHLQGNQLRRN
T2 sequence (P20963 22-164, chain 4 of 4): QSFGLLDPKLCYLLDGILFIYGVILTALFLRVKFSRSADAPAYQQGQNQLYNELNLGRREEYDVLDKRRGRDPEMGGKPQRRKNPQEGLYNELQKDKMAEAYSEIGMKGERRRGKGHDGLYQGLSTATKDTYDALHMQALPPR
Method: as §1

[3] = molecular target: T3, human GPRC5D expressed on HEK293T cells (human, UniProt Q9NZD1 1-345); test: FACS on HEK293T/human GPRC5D cells, PE goat anti-human IgG (H+L) secondary antibody, MFI
T3 construct: also called HEK293T/human GPRC5D cells
T3 sequence (Q9NZD1 whole entry): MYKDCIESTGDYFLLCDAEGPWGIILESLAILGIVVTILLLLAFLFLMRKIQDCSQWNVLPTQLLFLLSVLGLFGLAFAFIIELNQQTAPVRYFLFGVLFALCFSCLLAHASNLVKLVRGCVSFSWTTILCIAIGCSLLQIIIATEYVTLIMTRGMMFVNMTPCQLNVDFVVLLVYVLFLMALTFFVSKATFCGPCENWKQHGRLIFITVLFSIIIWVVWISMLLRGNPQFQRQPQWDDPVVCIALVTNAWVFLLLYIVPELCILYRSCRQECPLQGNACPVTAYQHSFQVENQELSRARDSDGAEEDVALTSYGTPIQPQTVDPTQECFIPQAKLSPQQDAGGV
Method: as §1

[4] = molecular target: T4, mouse BCMA expressed on HEK293A cells (mouse, UniProt O88472 1-185); test: FACS on HEK293A/mouse BCMA cells, PE goat anti-human IgG (H+L) secondary antibody, MFI
T4 construct: also called HEK293A/mouse BCMA cells
T4 sequence: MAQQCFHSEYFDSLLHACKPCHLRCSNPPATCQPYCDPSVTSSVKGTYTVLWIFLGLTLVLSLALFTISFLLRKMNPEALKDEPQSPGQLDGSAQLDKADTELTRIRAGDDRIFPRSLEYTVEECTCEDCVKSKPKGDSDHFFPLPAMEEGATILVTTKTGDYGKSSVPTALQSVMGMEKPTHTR
Method: as §1

[5] = molecular target: T5, human BCMA expressed on HEK293A cells (human, UniProt Q02223 1-184); test: FACS on HEK293A/human BCMA cells, PE goat anti-human IgG (H+L) secondary antibody, MFI
T5 construct: also called HEK293A/human BCMA cells
T5 sequence: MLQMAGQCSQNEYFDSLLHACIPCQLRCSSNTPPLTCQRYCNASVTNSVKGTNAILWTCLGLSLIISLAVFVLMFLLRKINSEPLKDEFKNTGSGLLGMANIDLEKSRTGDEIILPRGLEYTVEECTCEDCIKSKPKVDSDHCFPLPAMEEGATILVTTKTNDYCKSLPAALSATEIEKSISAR
Method: as §1

[6] = molecular target: T6, human BCMA antigen (Cat #:BCA-H522y, ACRO) (human, UniProt Q02223 1-54); test: SPR (BIAcore 8K), antibody captured by anti-human Fc on CM5 chip, antigen as analyte
T6 construct: Bought recombinant protein used as SPR analyte
T6 sequence: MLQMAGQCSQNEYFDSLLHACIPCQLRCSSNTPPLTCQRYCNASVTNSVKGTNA
Method: (§2) The mouse anti-human Fe antibody (Cat #:BR100839, cytiva) was coupled to the surface of a CM5 chip. The antibody to be tested was diluted to 1 μg/ml with the HBS-EP buffer (Cat #:BR-1006-69, GE Life Sciences), to ensure about 100 RU of the antibody was captured by the anti-human Fe antibody. The human BCMA antigen (Cat #:BCA-H522y, ACRO), human CD3D&E protein (Cat #: CT038-H2508H, Sino biological), and human GPRC5D antigen (Cat #:HM05P, Kactus Biosystems) were diluted with HBS-EP buffer to […], respectively. Each protein at different concentrations was flowed through the surface of the stationary phase. Chips were regenerated by 3 M MgCl₂ solution. The kinetics assay was run with the Kinetics Wizard in BIAcore 8K's control software. […] The data was fitted in BIAcore 8K's evaluation software, and KD values of the test antibodies to the above antigens were determined and summarized in Table 1.

[7] = molecular target: T7, human CD3D&E protein (Cat #: CT038-H2508H, Sino biological) (human, UniProt P04234 22-105; P07766 23-126); test: as above
T7 construct: Bought recombinant delta/epsilon complex used as SPR analyte; also called CD3D&E complex
T7 sequence (P04234 22-105, chain 1 of 2): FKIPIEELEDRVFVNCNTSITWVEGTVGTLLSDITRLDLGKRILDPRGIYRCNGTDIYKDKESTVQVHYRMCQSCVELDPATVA
T7 sequence (P07766 23-126, chain 2 of 2): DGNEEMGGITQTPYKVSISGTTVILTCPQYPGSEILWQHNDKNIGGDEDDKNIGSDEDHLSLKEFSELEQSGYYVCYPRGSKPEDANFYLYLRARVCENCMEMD
Method: as §2

[8] = molecular target: T8, human GPRC5D antigen (Cat #:HM05P, Kactus Biosystems) (human, UniProt Q9NZD1 1-345, limits assumed); test: as above
T8 construct: Bought antigen used as SPR analyte
T8 sequence (Q9NZD1 whole entry): as the sequence (Q9NZD1 whole entry) above
Method: as §2

[9] = molecular target: T9, monkey BCMA expressed on HEK293A cells (monkey, UniProt Q02223 1-184 (human entry)); test: FACS on HEK293A/monkey BCMA cells, PE goat anti-human IgG (H+L) secondary antibody, MFI
T9 construct: also called HEK293A/monkey BCMA cells
T9 sequence (Q02223 other isoform, or with tags, fused parts or gaps): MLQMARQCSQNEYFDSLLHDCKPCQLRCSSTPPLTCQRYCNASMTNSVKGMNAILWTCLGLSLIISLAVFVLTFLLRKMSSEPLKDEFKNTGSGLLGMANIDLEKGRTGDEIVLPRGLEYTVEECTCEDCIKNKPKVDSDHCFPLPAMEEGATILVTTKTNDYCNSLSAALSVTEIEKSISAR
Method: as §1

Binder	EC50 (read off the curve) [1] [µg/mL]	binding result [2]	EC50 (read off the curve) [3] [µg/mL]	binding result [4]	EC50 (read off the curve) [5] [µg/mL]	Kd [6] [nM]	koff [6] [s⁻¹]	kon [6] [M⁻¹ s⁻¹]	Kd [7] [nM]	koff [7] [s⁻¹]	kon [7] [M⁻¹ s⁻¹]	Kd [8] [nM]	koff [8] [s⁻¹]	kon [8] [M⁻¹ s⁻¹]	EC50 (read off the curve) [9] [µg/mL]	EC50 (read off the curve) [2] [µg/mL]
B1	~0.4	binds	~0.4	no binding	~1	0.441	0.000283	642000	249	0.00774	31100	3.53	0.00174	493000	~0.8	
B2																~0.06
